Biological target: MBP-SlMYC2 (Solanum lycopersicum, UniProt A0A3Q7HRZ6 1-689)
Experiment: EMSA; LightShift Chemiluminescent EMSA kit (Thermo Scientific), acrylamide gel; buffer, salt, pH and temperature not given
Details: protein: recombinant; tags: N-terminal MBP (pMAL-c2); chain copies: 2; label: biotin (3' end per Methods); blunt

MBP-SlMYC2, sequence (A0A3Q7HRZ6 whole entry): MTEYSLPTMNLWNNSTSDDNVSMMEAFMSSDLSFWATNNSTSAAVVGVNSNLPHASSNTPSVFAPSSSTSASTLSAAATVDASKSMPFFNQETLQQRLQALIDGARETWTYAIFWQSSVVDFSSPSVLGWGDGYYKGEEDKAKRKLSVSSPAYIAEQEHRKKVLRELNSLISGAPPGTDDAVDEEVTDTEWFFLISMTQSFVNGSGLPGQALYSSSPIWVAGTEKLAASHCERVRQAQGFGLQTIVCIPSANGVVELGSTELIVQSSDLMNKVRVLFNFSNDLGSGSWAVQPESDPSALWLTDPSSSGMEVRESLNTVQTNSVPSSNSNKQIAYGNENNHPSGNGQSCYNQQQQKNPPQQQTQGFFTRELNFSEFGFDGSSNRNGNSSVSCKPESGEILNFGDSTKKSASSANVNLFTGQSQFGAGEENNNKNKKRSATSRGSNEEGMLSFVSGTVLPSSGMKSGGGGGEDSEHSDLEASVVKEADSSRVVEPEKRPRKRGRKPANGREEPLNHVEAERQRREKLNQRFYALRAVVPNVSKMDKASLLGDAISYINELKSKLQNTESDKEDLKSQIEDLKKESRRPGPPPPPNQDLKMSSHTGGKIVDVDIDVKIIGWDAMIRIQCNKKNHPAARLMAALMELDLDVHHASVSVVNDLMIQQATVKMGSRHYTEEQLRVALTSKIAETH

B1: TomLoxDpro probe-369 (dsDNA)
DNA 1: TCGGTTTGACTAAATTCCACCATGTGTAAAGCTTGCACTAAAATGAAACC
DNA 2: GGTTTCATTTTAGTGCAAGCTTTACACATGGTGGAATTTAGTCAAACCGA
binding result: binds

Reference: article PMC3861047, “Role of Tomato Lipoxygenase D in Wound-Induced Jasmonate Biosynthesis and Plant Immunity to Insect Herbivores”
